Measured values from patent US20250276075A1, “METHODS OF TREATING AXL-EXPRESSING CANCERS WITH ANTI-AXL ANTIBODIES, ANTIBODY FRAGMENTS AND THEIR IMMUNOCONJUGATES” (BIOATLA, INC., priority 2020, published 2025).
“Also recorded” adds a separate entry of the source.

Tests used:
[1] = test system: Axl expressing human cancer cell lines; assay: BA3011 in vitro functional assays of cellular toxicity; type: cell-based
[2] = BA3011 repeat dose intravenous toxicology study in monkey; type: in vivo, cynomolgus monkey
Protocol: The nonclinical intravenous (IV) toxicity of BA3011 was evaluated in the monkey in an initial dose-range finding study followed by a definitive Good Laboratory Practice repeat dose toxicology study. […] Many of the toxicities observed with BA3011 are similar to other ADCs conjugated to MMAE.
Based on the results at the 5 and 10 mg/kg/dose, the no-observed-adverse-effect-level (NOAEL) of BA3011 was considered to be 1 mg/kg/dose for both males and females. […] The highest non-severely toxic dose (HNSTD) was 5 mg/kg/dose, with C0 on Day 22 at 111 μg/mL and AUC0-inf at 2370 μg·h/mL.

advanced sarcoma = assay: Phase 1 clinical study of BA3011: antitumor activity (RECIST v1.1, change in sum of target lesions); type: in vivo, human
From the text: The primary efficacy endpoint in Phase 2 is objective response (OR) per RECIST v1.1 using blinded independent central review (BICR). Objective response rate (ORR) is defined as the proportion of subjects with a best overall response of confirmed CR or confirmed PR that occur prior to the initiation of subsequent anticancer treatment. ORR will be estimated with a 95% CI using the exact probability method for each sarcoma subtype and overall in each of the 2 treatment groups (BA3011 alone and in combination with nivolumab). Other efficacy endpoints are duration of response (DOR), progression-free survival (PFS), best overall response (OR), disease control rate (DCR), time to response (TTR), progression-free rate (PFR) at 12 weeks, overall survival (OS), and percent change from baseline in target lesion sum of diameters. All efficacy endpoints except PFS and OS will be summarized primarily based on the full analysis set (FAS). PFS and OS will be summarized based on the As-Treated Population. Time-to-event data will be summarized using Kaplan-Meier estimates. Response rates and their confidence intervals will be estimated using the exact probability method. Graphical analyses will include spider and waterfall plots for the change and best change from baseline in tumor size, respectively.
Study BA3011-001 was an ongoing, multi-center, open-label, Phase 1/2 first-in-human trial of BA3011.
In Phase 1 (NCT03425279), BA3011 was administered once (Q3W) or twice (2Q3W) every 3 weeks via intravenous (IV) infusion.

B1: Mecbotamab vedotin (conjugate, chains of the INN, looked up)
VH: EVQLVQSGAEVKKPGATVKISCKVSGYSFWGATMNWIRQPPGKGLEWIGLIKPSNGGTSYNQKFKGRVTISADKSISTAYLQWSSLKASDTAMYYCAHGHYESYEAMDYWGQGTLVTVSS
VL: DIQMTQSPSSLSASVGDRVTITCKASQDVVSAVAWYQQKPGQAPRLLIYWQDTRHTGVPSRFSGSGSGTEFTLTISSLQPDDFATYYCQEHFSPPLTFGQGTKVEIK
modifications: MC-vc-PAB-MMAE conjugate
[1]; normal conditions
  cytotoxicity: reduced cytotoxicity
[1]; tumor conditions
  cellular toxicity: induce cellular toxicity
[2]; 10 mg/kg/dose in males and 5 mg/kg/dose in females
  pathological changes in lymphoid organs: adverse pathological changes in lymphoid organs
[2]; 10 mg/kg/dose, Days 1 and 22, IV slow bolus
  mortality: early deaths in females
[2]; 5 and 10 mg/kg/dose in both sexes
  hematological changes: adverse hematological changes
[2]; any of the dose levels tested
  changes in body weight, electrocardiogram (ECG), ophthalmology, or urinalysis: No test article-related changes
[2]; cynomolgus monkey, in vivo
  highest non-severely toxic dose (HNSTD): 5 mg/kg/dose
Advanced sarcoma; Phase 1
  antitumor activity in sarcoma patients: correlated with higher levels of AXL tumor membrane expression; also recorded: evidence of antitumor activity was observed
Advanced sarcoma; of 7 treatment refractory sarcoma patients with baseline TmPS≥70 dosed at 1.8 mg/kg (Q3w or 2Q3w)
  confirmed partial responses: 4
Advanced sarcoma; sarcoma patients, FIG. 24
  duration of response to therapy: Prolonged response to therapy
